{"source": "paper PMC3124622", "substrate": "Nc1nc2nc[nH]c2c(=O)[nH]1", "assay": "purified protein, by the assay type", "type": "biochemical, E. coli", "details": "other: wild-type, guanine as substrate, 20 μM tRNA, 37 °C, pH 7.3", "data": [{"protein": "E. coli TGT Wild-Type (Escherichia coli K-12) (protein) MKFELDTTDGRARRGRLVFDRGVVETPCFMPVGTYGTVKGMTPEEVEATGAQIILGNTFHLWLRPGQEIMKLHGDLHDFMQWKGPILTDSGGFQVFSLGDIRKITEQGVHFRNPINGDPIFLDPEKSMEIQYDLGSDIVMIFDECTPYPADWDYAKRSMEMSLRWAKRSRERFDSLGNKNALFGIIQGSVYEDLRDISVKGLVDIGFDGYAVGGLAVGEPKADMHRILEHVCPQIPADKPRYLMGVGKPEDLVEGVRRGIDMFDCVMPTRNARNGHLFVTDGVVKIRNAKYKSDTGPLDPECDCYTCRNYSRAYLHHLDRCNEILGARLNTIHNLRYYQRLMAGLRKAIEEGKLESFVTDFYQRQGREVPPLNVD", "values": [{"measurement": "Km", "value": "0.35 (0.03) μM"}, {"measurement": "kcat", "value": 0.00629, "unit": "s⁻¹"}]}]}
